Patent publication US20230235058A1 (OXFORD UNIVERSITY INNOVATION, published 2023)

T1: full length cynomolgus BTLA expressed on Jurkat cells (cynomolgus monkey, UniProt Q7Z6A9 31-289 (human entry))
T1 chain: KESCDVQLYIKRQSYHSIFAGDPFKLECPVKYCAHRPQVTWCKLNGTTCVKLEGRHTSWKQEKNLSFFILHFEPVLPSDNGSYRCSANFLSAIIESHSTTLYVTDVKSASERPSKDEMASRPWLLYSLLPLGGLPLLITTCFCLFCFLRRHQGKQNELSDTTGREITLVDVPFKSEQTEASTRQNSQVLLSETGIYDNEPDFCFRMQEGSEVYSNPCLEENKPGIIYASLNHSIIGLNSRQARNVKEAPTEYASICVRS


Legend:
[1] = molecular target: T2, chimeric BTLA of humanised-BTLA mice (human extracellular region, murine transmembrane and signaling … (human; mouse, UniProt Q7TSA3 184-306, limits assumed); assay: cell-based or functional assay
T2 sequence (Q7TSA3 other isoform, or with tags, fused parts or gaps mutant limits assumed): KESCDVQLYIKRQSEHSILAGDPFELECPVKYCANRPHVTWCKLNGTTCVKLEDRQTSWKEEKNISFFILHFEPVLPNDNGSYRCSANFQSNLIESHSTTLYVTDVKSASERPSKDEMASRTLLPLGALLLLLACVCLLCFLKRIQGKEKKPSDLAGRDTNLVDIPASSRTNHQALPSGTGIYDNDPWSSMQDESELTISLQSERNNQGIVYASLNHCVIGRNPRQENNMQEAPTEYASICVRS

[2] = molecular target: T3, E83R (Mus musculus); assay: flow cytometry, GFP-positive transfected HEK-293T cells, fluorochrome-conjugated antibody at 10 ug/ml, Geo-mean relative to wild type;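 also: cells express mutant human BTLA ectodomain fused to murine CD28 transmembrane and cytoplasmic parts, stained 48 h after transfection for 1 h at 4 °C alongside a Live/Dead dye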
T3 construct: transmembrane and intracellular regions; also called BTLA E83R construct
Procedure: (§1) Constructs encoding the human extracellular region of BTLA with the transmembrane and intracellular regions of murine CD28 were cloned into the bi-cistronic mammalian expression vector pGFP2-n2 (BioSignal Packard Ltd), which also encodes GFP. […] Mock and no-transfection controls were included with each experiment. Cells were harvested at 48 hours and stained with fluorochrome-conjugated anti-BTLA antibody at 10 μg/ml, alongside a Live/Dead marker, in PBS, 0.05% azide, 2% FCS (FACS buffer) for 1 h at 4° C. Cells were washed, pelleted and resuspended in 200 μl FACS buffer before being analysed on a BD FACSCanto flow cytometer. […] For each mutant the Geo-mean of anti-BTLA antibody binding to transfected cells was expressed as a percentage of binding to the wild-type receptor (FIG. 3b). A panel of anti-BTLA antibodies was assessed and any mutation that eliminated binding of all antibodies was excluded from the analysis, on the assumption that such mutations lead to drastic changes in protein folding or expression rather than indicating an antibody epitope.

[3] = molecular target: T4, S121R (Mus musculus); assay: as above
T4 construct: transmembrane and intracellular regions; also called BTLA S121R construct
T4 sequence (Q7Z6A9 31-151 S121R): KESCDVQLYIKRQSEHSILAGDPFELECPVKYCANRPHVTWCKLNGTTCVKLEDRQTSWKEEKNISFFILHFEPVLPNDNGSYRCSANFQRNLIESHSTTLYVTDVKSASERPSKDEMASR
Procedure: as §1

[4] = molecular target: T5, L123R (Mus musculus); assay: as above
T5 construct: transmembrane and intracellular regions; also called BTLA L123R construct
Procedure: as §1

[5] = molecular target: T6, R42E (Mus musculus); assay: as above
T6 construct: transmembrane and intracellular regions; also called BTLA R42E construct
Procedure: as §1

[6] = molecular target: T7, E103R (Mus musculus); assay: as above
T7 construct: transmembrane and intracellular regions; also called BTLA E103R construct
T7 sequence (Q7Z6A9 31-151 E103R): as the sequence (Q7Z6A9 31-151 S121R) above, with E73R, R91S counted along it
Procedure: as §1

[7] = molecular target: T8, L106R (Mus musculus); assay: as above
T8 construct: transmembrane and intracellular regions; also called BTLA L106R construct
Procedure: as §1

[8] = molecular target: T9, V80R (Mus musculus); assay: as above
T9 construct: transmembrane and intracellular regions; also called BTLA V80R construct
Procedure: as §1

[9] = molecular target: T10, K81L (Mus musculus); assay: as above
T10 construct: transmembrane and intracellular regions; also called BTLA K81L construct
Procedure: as §1

[10] = molecular target: T1, full length cynomolgus BTLA expressed …; assay: cell-based or functional assay
[11] = molecular target: T2, chimeric BTLA of humanised-BTLA mice …; assay: cell-based or functional assay; remark: listed apart in the source

Binder	AntiCD3/CD28 (CD4 T cell proliferation) repeat 1 [1] [% inhibition]	AntiCD3/CD28 (CD4 T cell proliferation) repeat 2 [1] [% inhibition]	AntiCD3/CD28 (CD69+ CD4 T cells) repeat 1 [1] [% inhibition]	AntiCD3/CD28 (CD69+ CD4 T cells) repeat 2 [1] [% inhibition]	MLR (CD4 T cell proliferation) repeat 1 [1] [% inhibition]	MLR (CD4 T cell proliferation) repeat 2 [1] [% inhibition]	binding as % of binding to wild-type BTLA [2] [%]	binding as % of binding to wild-type BTLA [3] [%]	binding as % of binding to wild-type BTLA [4] [%]	binding as % of binding to wild-type BTLA [5] [%]	binding as % of binding to wild-type BTLA [6] [%]	binding as % of binding to wild-type BTLA [7] [%]	binding as % of binding to wild-type BTLA [8] [%]	binding as % of binding to wild-type BTLA [9] [%]	inhibition of NFkB-GFP reporter, IC50 [10] [nM]	inhibition of CD4 T cell proliferation in MLR, IC50 [11] [nM]
11.5.1 (antibody, V domains shown, mouse IgG1k hybridoma antibody) VH: EVQLQESGPSLVKPSQTLSLTCSVTGDSITSAYWNWIRKFPGNKLEYMGYISYSGSTYFNPSLKSRISITRNTSKNQYYLQLNSVTTEDTATYYCARSHYYGYYFDYWGHGTTLTVSS VL: DIVLTQSPASLAVSLGQRATISCRASETIDSYGDSLMHWYQQKAGQPPKLLIYRASNLESGIPARFSGSGSRTDFTLTINPVEADDVATYYCQQTDEDPYTFGGGTKLEIK	21	28	50	47	23	18	95.5	42.5	116	72.3	213	135	39.9	116	0.14	0.016
2.8.6 (antibody, V domains shown, mouse IgG1k hybridoma antibody; also called clone 2.8.6) VH: QVQLKESGPGLVAPSQSLSITCTVSGFSLTTYGVHWVRQSPGKGLEWLGVMWPGGRTSYNPAPMSRLSISKDNSKSQVFLKMNSLQTDDTAMYYCVRGDYEYDYYAMDYWGQGTSVTVSS VL: QIVLSQSPAILSASPGEKVTMTCRASSSVSYMHWYQQKPGSSPKPWIYATSNLASGVPARFSGSGSGTSYSLTISRMEAEDAATYYCHQWSSNPYTFGGGTKLEIK	23	35	58	67	30	36	98.8	67.9	97.4	111	79	80.4	71.6	90.3	0.22	0.029
